Test results reported in patent publication US9296994B2, “Archease as RNA ligaes complex member” (IMBA—INSTITUT FÜR MOLEKULARE BIOTECHNOLOGIE GMBH, priority 2012, dated 2016).

Assays:
[1] = target: T1, human tRNA ligase complex (Homo sapiens, UniProt Q9Y3I0); test: RNA ligation assay with affinity-purified tRNA ligase complex and added recombinant Archease; format: biochemical; settings: pre-cleaved tRNA substrates or linear intron, time course
T1 construct: FLAG; made in house; Archease expressed in E. coli
T1 sequence (Q9Y3I0 whole entry): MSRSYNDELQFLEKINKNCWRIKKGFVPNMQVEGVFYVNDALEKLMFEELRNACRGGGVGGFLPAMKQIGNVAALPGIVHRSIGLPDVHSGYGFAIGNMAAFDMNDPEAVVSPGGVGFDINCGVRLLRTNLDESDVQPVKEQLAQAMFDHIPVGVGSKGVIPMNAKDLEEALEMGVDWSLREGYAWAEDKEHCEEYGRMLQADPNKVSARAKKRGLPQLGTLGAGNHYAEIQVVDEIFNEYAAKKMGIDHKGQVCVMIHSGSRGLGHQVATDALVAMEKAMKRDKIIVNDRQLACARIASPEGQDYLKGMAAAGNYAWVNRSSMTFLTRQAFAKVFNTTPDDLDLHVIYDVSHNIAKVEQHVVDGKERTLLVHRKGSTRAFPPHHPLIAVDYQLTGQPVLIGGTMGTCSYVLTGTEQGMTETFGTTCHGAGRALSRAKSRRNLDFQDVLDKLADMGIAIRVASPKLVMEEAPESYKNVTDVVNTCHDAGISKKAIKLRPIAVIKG
T1 sequence (Q92499 whole entry partner): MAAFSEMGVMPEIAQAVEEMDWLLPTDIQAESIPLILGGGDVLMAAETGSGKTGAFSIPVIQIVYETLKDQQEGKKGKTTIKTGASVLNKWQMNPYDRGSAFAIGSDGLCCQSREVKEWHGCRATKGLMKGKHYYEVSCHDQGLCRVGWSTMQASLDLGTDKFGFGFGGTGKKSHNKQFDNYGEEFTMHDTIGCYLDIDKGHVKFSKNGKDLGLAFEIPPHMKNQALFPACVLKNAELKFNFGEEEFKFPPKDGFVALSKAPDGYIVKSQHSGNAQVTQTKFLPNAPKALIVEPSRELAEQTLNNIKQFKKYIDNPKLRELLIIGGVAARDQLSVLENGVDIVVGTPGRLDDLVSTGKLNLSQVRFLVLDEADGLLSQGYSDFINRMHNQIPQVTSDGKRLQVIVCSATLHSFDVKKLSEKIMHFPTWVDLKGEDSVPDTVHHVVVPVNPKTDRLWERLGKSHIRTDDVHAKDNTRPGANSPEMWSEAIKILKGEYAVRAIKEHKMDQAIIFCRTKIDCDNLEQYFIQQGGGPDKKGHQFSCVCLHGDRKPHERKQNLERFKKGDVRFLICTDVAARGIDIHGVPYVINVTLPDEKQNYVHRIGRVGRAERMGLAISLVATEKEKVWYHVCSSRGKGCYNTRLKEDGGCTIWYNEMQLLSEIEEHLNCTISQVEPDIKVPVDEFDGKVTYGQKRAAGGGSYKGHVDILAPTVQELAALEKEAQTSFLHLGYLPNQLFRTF
T1 sequence (Q52LJ0 whole entry partner): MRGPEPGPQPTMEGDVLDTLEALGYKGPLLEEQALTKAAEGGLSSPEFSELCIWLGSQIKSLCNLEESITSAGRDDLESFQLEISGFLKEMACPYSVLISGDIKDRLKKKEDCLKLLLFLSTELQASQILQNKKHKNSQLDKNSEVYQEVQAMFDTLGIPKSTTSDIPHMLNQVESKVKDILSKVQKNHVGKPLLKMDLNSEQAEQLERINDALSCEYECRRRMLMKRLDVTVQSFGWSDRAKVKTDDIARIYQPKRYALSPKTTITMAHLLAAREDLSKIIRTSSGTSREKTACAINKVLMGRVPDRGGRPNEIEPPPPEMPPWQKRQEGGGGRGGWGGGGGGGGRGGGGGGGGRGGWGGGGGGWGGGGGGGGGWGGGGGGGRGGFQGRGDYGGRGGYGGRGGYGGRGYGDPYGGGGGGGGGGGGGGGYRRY
T1 sequence (Q9BVC5 whole entry partner): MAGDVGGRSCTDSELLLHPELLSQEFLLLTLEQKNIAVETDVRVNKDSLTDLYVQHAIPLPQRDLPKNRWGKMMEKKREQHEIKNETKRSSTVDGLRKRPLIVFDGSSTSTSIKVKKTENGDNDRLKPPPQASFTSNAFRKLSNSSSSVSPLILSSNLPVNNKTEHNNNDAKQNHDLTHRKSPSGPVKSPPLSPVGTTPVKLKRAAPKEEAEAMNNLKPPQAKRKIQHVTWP
T1 sequence (Q9Y224 whole entry partner): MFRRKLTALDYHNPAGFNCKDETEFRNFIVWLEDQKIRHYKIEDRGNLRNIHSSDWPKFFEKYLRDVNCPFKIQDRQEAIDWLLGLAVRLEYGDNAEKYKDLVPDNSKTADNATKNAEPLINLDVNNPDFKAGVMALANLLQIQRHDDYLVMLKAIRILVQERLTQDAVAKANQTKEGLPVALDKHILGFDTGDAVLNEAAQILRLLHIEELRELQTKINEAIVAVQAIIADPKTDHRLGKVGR
Method: FIG. 3: Archease boosts RNA ligation by the human tRNA ligase complex. A) Time-course ligation assay with affinity-purified tRNA ligase complex and pre-cleaved tRNA substrates in absence or presence of recombinant Archease. B) Time course ligation assay with affinity purified tRNA ligase complex and isolated linear introns (2.5 μM) in absence or presence of recombinant Archease (8.5 μM) expressed in E. coli. The signals corresponding to the concatemerized intron were quantified and plotted as fraction of the total signal detectable in the respective lane.
FIG. 6: The point mutations D39A and K144A abolish the function of Archease in RNA ligation. A) Time-course of ligation activity of FLAG-HSPC117 complexes upon addition of recombinant wild-type or mutant Archease (15 μM). B) SDS-PAGE analysis of purified recombinant wild-type and mutant Archease.
Addition of Archaease influences ligase activity of affinity purified human tRNA ligase complexes.
To study the function of Archease the available NMR structure from the euryarchaeote Methanothermobacter thermautotrophicus (Yee et al., 2002) (36% identical to human protein) was used and aspartic acid (D) 39 and lysine (K) 144, both extremely conserved residues, were replaced by alanines (D39A; K144A) (FIG. 5). Wild-type and mutant versions of Archease were over-expressed in […] and tRNA ligase activity was measured. […] FIG. 6B confirms equal concentrations of recombinant proteins added to the reactions.

[2] = target: T2, HSPC117 within the human tRNA ligase complex (Homo sapiens, UniProt Q9Y3I0); test: Guanylation of affinity purified FLAG-HSPC117 with [α-32P]GTP; format: biochemical; settings: SDS PAGE, phosphorimaging
T2 construct: FLAG; made in house
T2 sequence (Q9Y3I0 whole entry): as the sequence (Q9Y3I0 whole entry) above
T2 sequence (Q92499 whole entry partner): as the sequence (Q92499 whole entry partner) above
T2 sequence (Q52LJ0 whole entry partner): as the sequence (Q52LJ0 whole entry partner) above
T2 sequence (Q9BVC5 whole entry partner): as the sequence (Q9BVC5 whole entry partner) above
T2 sequence (Q9Y224 whole entry partner): as the sequence (Q9Y224 whole entry partner) above
Method: FIG. 13: Guanylation of HSPC117 within the human tRNA ligase complex by Archease. A. Affinity purified FLAG-HSPC117 was incubated with wild-type or mutant versions of Archease or buffer as a control in the presence of [α-32P]GTP or [α-32P]ATP, full circles indicate inclusion, empty circles indicate omission from reaction mixtures. Reaction mixtures were resolved by SDS PAGE and radiolabeled protein species visualized by phosphorimaging. B. Equal loading was confirmed by Coomassie staining.
Reaction mixtures were resolved by SDS PAGE and radiolabeled protein species visualized by phosphorimaging or by Coomassie staining (FIGS. 13 A and B).

B1: wild-type Archease: Homo sapiens Archease protein (SEQ ID NO: 28), recombinant, enhances RNA ligase activity of HSPC117 (protein, listed as Homo sapiens)
chain: MAQEEEDVRDYNLTEEQKAIKAKYPPVNRKYEYLDHTADVQLHAWGDTLEEAFEQCAMAMFGYMTDTGTVEPLQTVEVETQGDDLQSLLFHFLDEWLYKFSADEFFIPREVKVLSIDQRNFKLRSIGWGEEFSLSKHPQGTEVKAITYSAMQVYNEENPEVFVIIDI
RNA ligase activity of affinity purified tRNA ligase complex upon addition of recombinant Archease [1]: led to an increase in RNA ligase activity
RNA ligase activity of affinity purified tRNA ligase complex upon addition of recombinant Archease ([1]; listed as recombinant Archease): boosts ligation activity to a great extent
Guanylation of FLAG-HSPC117 [2]: only detectable in the presence of wild-type
